Experimental data reported in US20050287132A1, “Biliverdin reductase fragments and variants, and methods of using biliverdin reductase and such fragments and variants” (University of Rochester, priority 1999, published 2005).
Changes are numbered by the printed parent chain. Values belong to the molecule of their own block, whether it stands above or below them.

Tests used:
biliverdin reductase [1] = experiment: Phosphorylation state of hBVR, SDS-PAGE immunoblot with anti-phospho antibodies; type: biochemical, human; conditions: anti-phospho mix blot, corrected for protein loading
Description: (§1) Purified protein was subjected to 12.5% SDS-PAGE and the protein transferred to PVDF membrane. The membrane was subsequently treated as for Western blotting, using anti-phosphoserine, anti-phosphotyrosine or anti-phosphothreonine, at 2 μg/ml, or a mixture of all three antibodies as the primary antibody. The secondary antibody was goat anti-rabbit horseradish peroxidase at a 1:1000 dilution and detection was carried out using the ECL reagent kit (NEN Life Sciences) according to the manufacturer's instructions.

[2] = Biliverdin reductase catalytic activity of recombinant wild type and mutant hBVR (Example 2, FIG. 3); type: biochemical, human
Description: FIGS. 3A-C are graphs depicting the effects of mutation of Gly^17, Ser^149, and Lys^296 on BVR catalytic activity. Purified preparations of recombinant wild type and mutant BVR with substitution of Gly^17 (FIG. 3A), Ser^149 (FIG. 3B), or Lys^296 (FIG. 3C) with Ala were assessed for BVR activity at pH 6.5 using NADH as cofactor and at pH 8.7 with NADPH as cofactor. Values presented are in percent wild type activity for each pH. The specific activity of the wild type preparation was 1744 nmol bilirubin produced min^−1 mg^−1 at pH 6.5 and 1147 nmol bilirubin produced min^−1 mg^−1 at pH 8.7. Values presented are representative of 2-4 determinations.
GST-BVR fusion proteins were prepared as described in Example 1. Human kidney biliverdin reductase was purified to homogeneity as described by Maines et al., Arch. Biochem. Biophys. 300:320-326 (1993), which is hereby incorporated by reference. The purified reductase preparations were judged to be homogenous by SDS-PAGE. Protein concentration was determined by the method of Bradford, Anal. Biochem. 72:248-254 (1976), which is hereby incorporated by reference.
Activity was determined as previously described by Huang et al., J. Biol. Chem. 264:7844-7849 (1989), which is hereby incorporated by reference, using NADPH as the cofactor at pH 8.7 in 0.1 M […] or NADH at pH 6.5 in […]. The rate of activity was measured as the increase in 450 nm absorbance at 25° C. Specific activity is expressed in units/mg protein, where 1 unit catalyzes the formation of 1 nmol bilirubin/min.

[3] = Biliverdin reductase activity of E. coli expressed hBVR wild type and mutants (Example 1); type: biochemical, human; conditions: for Activity (nmol bilirubin/min/mg) pH 6.7 + NADH: pH 6.7, NADH cofactor; for Activity (nmol bilirubin/min/mg) pH 6.7 + NADH / Activity (nmol bilirubin/min/mg) pH 8.7 + NADPH: 25°; for Activity (nmol bilirubin/min/mg) pH 8.7 + NADPH: pH 8.7, NADPH cofactor
Description: SalI linkers are underlined in each primer. The products were digested with SalI and cloned into the vector pGEX 4T-2. Orientation was determined by restriction analysis and confirmed by sequencing. The ligation places the BVR coding region in frame with the GST protein of the vector. GST-BVR fusion proteins were purified from bacterial clones containing the plasmid, and grown overnight using a glutathione-sepharose 4B column (Pharmacia). The reductase portion of the fusion protein was released by thrombin protease treatment.
Activity was determined as previously described (Kutty et al., J. Biol. Chem. 256:3956-3962 (1981); Huang et al., J. Biol. Chem. 264:7844-7849 (1989), which are hereby incorporated by reference). Activity was determined in a 1 ml assay volume that contained 0.1 M Tris/HCl, pH 8.7 NADPH (100 μM), and biliverdin (5 μM). Reductase activity was also measured using NADH (1 mM) as the cofactor; in this case 0.1 M potassium phosphate pH 6.75, was substituted for Tris/HCl. SDS/PAGE was performed by the method of Laemmli, Nature 227:680-685 (1970), which is hereby incorporated by reference. Western blot analysis was performed using anti-serum to human kidney biliverdin reductase as previously described (Maines et al., Arch. Biochem. Biophys. 300:320-326 (1993), which is hereby incorporated by reference). The relative amounts of immunoreactive protein were determined by scanning the blot using a laser densitometer and comparing the area under the peak for each mutant with the wild type. The rate of activity was measured as the increase in 450 nm absorbance at 25° C. Specific activity is expressed as nmol bilirubin/min/ mg protein.

biliverdin reductase [4] = molecular target: T1, biliverdin reductase (Homo sapiens, UniProt P53004, A154S/E160D/G155D/G17A); experiment: Phosphorylation state of hBVR, SDS-PAGE immunoblot with anti-phospho antibodies; type: biochemical; conditions: versus wild type
T1 construct: used to amplify the full-length cDNA by PCR as described in purification of cloned reductase; GST (N, cleaved yes); made in house; host or cells: E. coli
T1 sequence (P53004 1-296 G17A/A154S/G155D/E160D): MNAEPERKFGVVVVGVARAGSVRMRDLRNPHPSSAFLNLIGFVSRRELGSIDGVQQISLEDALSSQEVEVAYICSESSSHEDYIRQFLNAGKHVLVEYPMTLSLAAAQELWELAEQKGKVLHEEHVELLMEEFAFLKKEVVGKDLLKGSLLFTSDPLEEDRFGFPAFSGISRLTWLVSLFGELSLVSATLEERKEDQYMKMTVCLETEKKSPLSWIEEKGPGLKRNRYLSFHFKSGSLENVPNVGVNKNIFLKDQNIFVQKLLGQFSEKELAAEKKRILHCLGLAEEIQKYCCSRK
Description: as §1

B1: Lys^296 mutant: hBVR with Lys^296→Ala at the C terminus within a substrate binding domain (protein, UniProt P53004 3-296, looked up, variant K296A)
Biliverdin reductase A: AEPERKFGVVVVGVGRAGSVRMRDLRNPHPSSAFLNLIGFVSRRELGSIDGVQQISLEDALSSQEVEVAYICSESSSHEDYIRQFLNAGKHVLVEYPMTLSLAAAQELWELAEQKGKVLHEEHVELLMEEFAFLKKEVVGKDLLKGSLLFTAGPLEEERFGFPAFSGISRLTWLVSLFGELSLVSATLEERKEDQYMKMTVCLETEKKSPLSWIEEKGPGLKRNRYLSFHFKSGSLENVPNVGVNKNIFLKDQNIFVQKLLGQFSEKELAAEKKRILHCLGLAEEIQKYCCSRA
autophosphorylation activity (biliverdin reductase [1]): essentially comparable to that of the wild type protein
BVR catalytic activity versus wild type ([2]; pH 6.5, NADH): doubling of activity
BVR catalytic activity versus wild type ([2]; pH 8.7, NADPH): doubling of activity

reduction in phosphorylation (biliverdin reductase [4]; anti-phospho mix, laser densitometry): approximately 50%
reduction of phosphoserine signal (biliverdin reductase [4]; anti-phosphoserine): approximately 50%
reduction in phosphothreonine signal (biliverdin reductase [4]; anti-phosphothreonine): not evident
reduction of phosphotyrosine signal (biliverdin reductase [4]; anti-phosphotyrosine): approximately 50%
B2: Gly^17: hBVR SEQ. ID. No. 1 with Gly^17→Ala within the nucleotide binding domain (protein, listed as Homo sapiens)
chain: T1 sequence (P53004 1-296 G17A/A154S/G155D/E160D)
Activity (nmol bilirubin/min/mg) pH 6.7 + NADH [3]: 698 nmol bilirubin/min/mg
reductase activity relative to the control (wild type) ([3]; pH 6.7 with NADH): 20-25%
Activity (nmol bilirubin/min/mg) pH 8.7 + NADPH [3]: 0 nmol bilirubin/min/mg
reductase activity relative to the control (wild type) ([3]; pH 8.7 with NADPH): inactive
BVR catalytic activity versus wild type ([2]; pH 6.5, NADH): essentially inactive
BVR catalytic activity versus wild type ([2]; pH 8.7, NADPH): essentially inactive

B3: Ser^149: hBVR SEQ. ID. No. 1 with Ser^149→Ala within the kinase motif of the leucine zipper (protein, listed as Homo sapiens)
chain: T1 sequence (P53004 1-296 G17A/A154S/G155D/E160D) with A17G, S149A
Activity (nmol bilirubin/min/mg) pH 6.7 + NADH [3]: 0 nmol bilirubin/min/mg
reductase activity relative to the control (wild type) ([3]; pH 6.7 with NADH): inactive
Activity (nmol bilirubin/min/mg) pH 8.7 + NADPH [3]: 231 nmol bilirubin/min/mg
reductase activity relative to the control (wild type) ([3]; pH 8.7 with NADPH, listed as Ser^149 mutant): minimal activity
autophosphorylation activity (biliverdin reductase [1]): essentially comparable to that of the wild type protein
BVR catalytic activity versus wild type ([2]; pH 6.5, NADH): essentially inactive
BVR catalytic activity versus wild type ([2]; pH 8.7, NADPH): essentially inactive
